Source: patent US20110262525A1, “METHODS OF TREATMENT” (SCHERING CORPORATION, priority 2006, published 2011)
Marks after values point to notes of the source that are not given here.

Experiments:
[1] = test system: NB-1771 xenograft (Neuroblastoma); assay: PPTP in vivo xenograft NB-1771; conditions: NB-1771 (Neuroblastoma) xenograft, 0.5 mg per mouse ip twice weekly for four weeks
Experimental: (§1) The PPTP includes a molecularly characterized in vitro panel of cell lines (n=27) and in vivo panel of xenografts (n=61) representing most of the common types of childhood solid tumors and childhood ALL (acute lymphoblastic leukemia). LCF/HCA anti-IGF1R antibody was tested against the PPTP in vitro panel at concentrations ranging from 0.01 nM to 100 nM; and was tested against the PPTP in vivo panel at a dose of 0.5 mg per mouse administered twice weekly for four weeks via intraperitoneal injection. Three measures of antitumor activity were used: 1) response criteria modeled after the clinical setting; 2) treated-to-control (T/C) tumor volume at day 21; and 3) a time to event (4-fold increase in tumor volume) measure based on the median EFS of treated and control lines (intermediate activity required EFS (event-free survival) T/C>2, and high activity additionally required a net reduction in median tumor volume at the end of the experiment).
(§2) Stage 1 testing involved testing an agent across the entire PPTP panel of childhood cancer xenograft lines at its maximum tolerated dose (MTD) or at a dose selected based on PK/PD (pharmacokinetic/pharmacodynamic) studies using adult preclinical models.
(§3) In vivo solid tumor testing: For each xenograft line, 10 mice bearing subcutaneous (SC) tumors initiated treatment when the tumors were between 0.2-0.5 cm^3 in volume. Two perpendicular tumor diameters were measured at once weekly intervals with digital vernier calipers. Assuming tumors to be spherical, volumes were calculated from the formula (π/6)×d3, where d represented the mean diameter.
Drug: LCF/HCA was dissolved in 20mM sodium acetate pH 5 buffer containing 150 mM sodium chloride, and administered intraperitoneally twice weekly for 4 consecutive weeks at a dose of 0.5 mg per animal. […]
(§4) Median Group Response: Each individual mouse in each treatment group was assigned a response score (see Tables above) and a median score for the treatment group was calculated and then each treatment group was assigned an overall response according to the table below. […]

[2] = test system: NB-SD xenograft (Neuroblastoma); assay: PPTP in vivo xenograft NB-SD; design: key to EFS activity notation (high, intermediate, indeterminate): high (!); intermediate (#); indeterminate (^)
Experimental: as §1, §2, §3
(§5) Drug: LCF/HCA was dissolved in 20mM sodium acetate pH 5 buffer containing 150 mM sodium chloride, and administered intraperitoneally twice weekly for 4 consecutive weeks at a dose of 0.5 mg per animal. The antibody was provided to each testing site in coded vials for blinded testing according the PPTP's standard operating procedures.
(§6) Median Group Response: Each individual mouse in each treatment group was assigned a response score (see Tables above) and a median score for the treatment group was calculated and then each treatment group was assigned an overall response according to the table below.
(§7) Statistical Methods: Event-free survival (EFS) distributions of each treatment group were compared to the EFS distribution of the respective control group using the exact log rank test. P-values were 2-sided & were not adjusted for multiple comparisons given the exploratory nature of this study. P-values<0.05 were considered to be significant.

[3] = test system: A498 human kidney carcinoma tumor cells; assay: A498 renal cell carcinoma xenograft in athymic nude mice; type: in vivo, mouse; conditions: 0.1 mg/injection ip two times per week, seven times starting on day 12
Experimental: Athymic nude mice were inoculated with A498 human kidney carcinoma tumor cells in the right flank, subcutaneously, along with Matrigel (1:1::cells:gel). In these experiments, 5×10^6 cells/mouse in a 1:1 mix with regular matrigel. The LCF/HCA anti-IGF1R antibody was inoculated intraperitoneally (ip) (0.1 mg/injection). Mice were dosed with antibody two times per week, by intraperitoneal injection, seven times starting on day 12. Tumor size was measured with calipers and the data was entered into the LABCAT data experimental collection and analysis program program (Innovative Programming Associates, Inc.; Princeton, N.J.). Mice were grouped with average size of 100 mm^3. Tumor size and body weight were measured twice weekly.

[4] = test system: ALL-17 xenograft (ALL B-precursor); assay: PPTP in vivo leukemia xenograft ALL-17; design: key to EFS activity notation (high, intermediate, indeterminate): high (!); intermediate (#); indeterminate (^); conditions: ALL-17 (ALL B-precursor) xenograft; 0.5 mg per mouse ip twice weekly for four weeks
Experimental: as §1, §2
In vivo acute lymphoblastic leukemia testing: For each xenograft line, 8 mice were inoculated with 3-5×10^6 mononuclear cells purified from the spleens of secondary recipient mice. Engraftment was monitored weekly by flow cytometry, and treatment was initiated when the proportion of human CD45+ cells in the peripheral blood reached 1%. The proportion of human CD45+ cells in the peripheral blood was monitored weekly throughout the course of treatment.
as §5, §6, §7

[5] = test system: ALL-19 xenograft (ALL B-precursor); assay: PPTP in vivo leukemia xenograft ALL-19; conditions: ALL-19 (ALL B-precursor) xenograft; 0.5 mg per mouse ip twice weekly for four weeks
Experimental: The PPTP includes a molecularly characterized in vitro panel of cell lines (n=27) and in vivo panel of xenografts (n=61) representing most of the common types of childhood solid tumors and childhood ALL (acute lymphoblastic leukemia). LCF/HCA anti-IGF1R antibody was tested against the PPTP in vitro panel at concentrations ranging from 0.01 nM to 100 nM; and was tested against the PPTP in vivo panel at a dose of 0.5 mg per mouse administered twice weekly for four weeks via intraperitoneal injection. […]
In vivo acute lymphoblastic leukemia testing: For each xenograft line, 8 mice were inoculated with 3-5×10^6 mononuclear cells purified from the spleens of secondary recipient mice. Engraftment was monitored weekly by flow cytometry, and treatment was initiated when the proportion of human CD45+ cells in the peripheral blood reached 1%. The proportion of human CD45+ cells in the peripheral blood was monitored weekly throughout the course of treatment. […]
as §4

[6] = test system: squamous cell carcinoma cell line SCC 25; assay: Cell-Titer Glo proliferation assay, SCC25; type: cell-based; conditions: 0.000256-100 nM antibody, 96 hours
Experimental: Cell proliferation was assayed using a Cell-Titer Glo assay (Promega Corp.; Madison, Wis.). A cell-titer glo assay generates a “glow” luminescent signal in the presence of ATP from viable cells, which can be detected with a plate reader luminometer or CCD imaging device.
In this assay, squamous cell carcinoma cells, SCC9, SCC25 and SCC15, were trypsinized, counted and resuspended at 25,000 cells/ml in 10% HI-FBS RPMI containing NEAA, L-Glu, MEM Vitamins and PS. […] (2500 cells) were added to each well BD Falcon 96 well black, clear bottom TC treated plate. Cells were allowed to attach and spread overnight at 37° C. Then, 10% RPMI medium was replaced with […] 2% RPMI, containing the LCF/HCA antibody at the appropriate concentration, the following day. The anti-IGF1R antibody concentrations used in each experiment were 100 nM, 20 nM, 5 nM, 0.8 nM, 0.16 nM, 0.032 nM, 0.0064 nM, 0.00128 nM, and 0.000256 nM. All treatments were prepared in 2% RPMI at 20× concentration and serial diluted. Every test point was prepared in triplicate on separate assay plates. As mentioned above, cell proliferation was measured using the CellTiter-Glo Luminescent Cell Viability Assay (Promega) at 96 hours post treatment. Luminescence was detected on a Wallac 420 Plate Reader with stacker.

[7] = test system: Rh28 xenograft (ALV Rhabdomyosarcoma); assay: PPTP in vivo xenograft Rh28; design: key to EFS activity notation (high, intermediate, indeterminate): high (!); intermediate (#); indeterminate (^)
Experimental: as §1, §2, §3, §5, §6, §7

[8] = 0.5 mg per mouse ip twice weekly for four weeks
[9] = day 21, 0.5 mg per mouse ip twice weekly for four weeks

B1: LCF/HCA: fully human anti-IGF1R antibody comprising the mature 19D12/15H12 light chain F (LCF) and mature heavy chain A (HCA) (antibody, V domains shown)
VH: EVQLVQSGGGLVHPGGSLRLSCAASGFTFSSFAMHWVRQAPGKGLEWISVIDTRGATYYADSVKGRFTISRDNAKNSLYLQMNSLRAEDMAVYYCARLGNFYYGMDVWGQGTTVTVSS
VL: EIVLTQVPDFQSVTPKEKVTITCRASQSIGSSLHWYQQKPDQSPKLLIKYASQSLSGVPSRFSGSGSGTDFTLTINSLEAEDAAAYYCHQSSRLPHTFGGGTKVEIKRT
Question: With B1 as the molecule, how does the “EFS T/C” value [1] read?
Answer: 1.1

Question: And the “Median Final RTV” value [1]?
Answer: >4

Question: And the “Tumor Volume T/C” value ([1]; day 21)?
Answer: 0.64

Question: What about the “EFS T/C” value [2, 8] of the same molecule?
Answer: > 1.8

Question: What about the “EFS activity notation (high, intermediate, indeterminate)” value (“EFS activity notation” below) [2, 8] of the same molecule?
Answer: ^

Question: And the “Median Final RTV” value [2, 8]?
Answer: 3.7^

Question: What about the “Overall Group Response” value [2, 8] of the same molecule?
Answer: PD2 (1 < MS ≦ 3)

Question: And the “Tumor Volume T/C” value [2, 9]?
Answer: 0.41

Question: What about the “in vivo growth of renal cell carcinoma tumor” value [3] of the same molecule?
Answer: in vivo growth inhibition

Question: What about the “EFS T/C” value [4] of the same molecule?
Answer: 3.1

Question: And the “EFS activity notation” value [4]?
Answer: #

Question: What about the “Median Final RTV” value [4] of the same molecule?
Answer: >25#

Question: And the “Overall Group Response” value [4]?
Answer: PD2 (1 < MS ≦ 3)

Question: And the “EFS T/C” value [5]?
Answer: 1.5

Question: And the “Median Final RTV” value [5]?
Answer: >25

Question: What about the “proliferation of squamous cell carcinoma cell line” value [6] of the same molecule?
Answer: inhibited

Question: What about the “EFS T/C” value [7, 8] of the same molecule?
Answer: > 2.6

Question: What about the “EFS activity notation” value [7, 8] of the same molecule?
Answer: #

Question: And the “Median Final RTV” value [7, 8]?
Answer: 2.9#

Question: And the “Overall Group Response” value [7, 8]?
Answer: PD2 (1 < MS ≦ 3)

Question: What about the “Tumor Volume T/C” value [7, 9] of the same molecule?
Answer: 0.36
